From article PMC5421625 (2017)

T1: MCPyV (Merkel cell polyomavirus) common T-Ag peptide on HLA-A*02:01 (human)
T1 peptide: KLLEIAPNC

T2: MCPyV (Merkel cell polyomavirus) common T-Ag peptide on HLA-A*02:01 (human)
T2 peptide: KLLEIAPNC


Legend:
[1] = biological target: T1, MCPyV (Merkel cell polyomavirus) common …; test: multimer staining
[2] = biological target: T2, MCPyV (Merkel cell polyomavirus) common …; test: multimer staining

Binder	binding result [1]	binding result [2]
w876 clonotype 5 (TCR) alpha TRAV38-1*01 TRAJ23*01 CDR3: CAYNQGGKLIF beta TRBV10-2*01 TRBJ2-2*01 CDR3: CASSVLNTGELFF	recognises	–
w678 clonotype 5 (TCR) alpha TRAV38-1*01 TRAJ43*01 CDR3: CAFRVSHDMRF beta TRBV10-2*01 TRBJ2-3*01 CDR3: CASSSGNPSTDTQYF	–	recognises
w830 clonotype 4 (TCR) alpha TRAV12-1*01 TRAJ43*01 CDR3: CVLNNNDMRF beta TRBV19*01 TRBJ1-5*01 CDR3: CASSILGASNQPQHF	recognises	–
w830 clonotype 5 (TCR) alpha TRAV12-1*01 TRAJ43*01 CDR3: CVVNANDMRF beta TRBV10-3*01 TRBJ2-2*01 CDR3: CAIRARDQNTGELFF	recognises	–
w678 clonotype 4 (TCR) alpha TRAV12-1*01 TRAJ45*01 CDR3: CVVATYSGGGADGLTF beta TRBV10-2*01 TRBJ2-3*01 CDR3: CASSSGNPSTDTQYF	recognises	recognises
w678 clonotype 2 (TCR) alpha TRAV38-1*01 TRAJ43*01 CDR3: CAFRVSHDMRF beta TRBV19*01 TRBJ2-1*01 CDR3: CASSIIAGSSYNEQFF	–	recognises
